Results published in patent US20090291088A1, “THERAPEUTIC COMBINATIONS OF ANTI-IGF-1R ANTIBODIES AND OTHER COMPOUNDS” (Biogen Idec MA Inc., priority 2008, published 2009).

B1: P1G10.2B8: murine anti-human IGF-1R monoclonal antibody from hybridoma; VH SEQ ID NO:58, VL SEQ ID NO:113 (antibody, V domains shown)
VH: QIQLVQSGPDLKKPGETVKISCKASGYTFTNHGMNWVKQAPGKDLKWMGWINTNTGEPTYADDFKGRFAFSLETSASTAYLQINNLKNEDTATYFCASPLYYRNGRYFDVWGAGTTVTVSS
VL: DIQMTQTTSSLSASLGDRVTISCRASQDISNYLNWYQQKPDGSVKLLIYYTSRLHSGVPSRFSGSGSGTDYSLTISNLEQEDIATYFCQQGKTLPWTFGGGTKLEIK
modifications: Antibody variable heavy chain sequence; Antibody variable light chain sequence
B2: M14-C03_Fab (antibody, V domains shown)
VH: EVQLLESGGGLVQPGGSLRLSCAASGFTFSKYMMSWVRQAPGKGLEWVSYISPSGGLTWYADSVKGRFTISRDNSKNTLYLQMNSLRAEDTAVYYCARDGARGYGMDVWGQGTTVTVSS
VL: DIQMTQSPATLSLSPGERATLSCRASQSVSSYLAWYQQKPGQAPRLLIYDASNRATGIPARFSGSGSGTDFTLTISSLEPEDFAVYYCQQRSNWPPEVTFGPGTKVDIK

Key:
Colo-205 = assay: IGF driven tumor cell growth, CELL TITER-GLO, Colo-205; assay type: cell-based, human; conditions: colon cancer cell
Procedure: (§1) NCI-H23, Calu-6, Colo-205, Panc-1, BxPC-3 (ATCC) tumor lines were purchased from ATCC. Cell lines were grown in complete growth medium containing RPMI-1640 (ATCC), 10% fetal bovine serum (Irvine Scientific Inc.) and 50 μg/ml of Gentamycin (Gibco, Invitrogen). Trypsin-EDTA solution (Sigma) was used for removal of adherent cells from culture vessels. Phosphate buffered saline, pH 7.2, was from MediaTech Inc The 96-well clear bottom plates for luminescent assay was purchased from Wallac Inc.
(§2) Cells grown to 80% monolayers were, trypsinized, washed, resuspended and plated into 96-well plates in 200 μl of 2% growth medium at 8×10^3 cells/well for NCI-H23 and Colo-205 cells; and 5×10^3 cells/well for Calu-6, Panc-1 and BxPC-3 cells. After 24 hours, the culture medium was replaced with 100 μl of serum free medium (SFM), and 50 μl of serially diluted antibodies at 4× concentration was added. […] All treatments were done in triplicates. Cell growth was measured using the CELL TITER-GLO™ Luminescent Cell Viability Assay (Promega, Madison, Wis.). The 1:1 mixture of reagent and SFM was added at 200 μl/well. Luminescence was detected on Wallac (Boston, Mass.) plate reader.
(§3) The ability of the selected murine antibodies to inhibit IGF/IGF-1R dependent in vitro growth of several human tumor lines (Lung, H-23, Calu-6; Pancreas, BxPc-3, Panc-1, MiaPaCa and Colon Colo205) was measured by a proliferation assay described in Example 13.

Panc-1 = assay: IGF driven tumor cell growth, CELL TITER-GLO, Panc-1; assay type: cell-based, human; conditions: pancreatic cancer cell
Procedure: as §1, §2, §3

IGF-1R phosphorylation = biological target: T1, IGF-1R phosphorylation (Homo sapiens, UniProt P08069); assay: Inhibition of IGF-1 and IGF-2 mediated IGF-1R phosphorylation in MCF-7 cells (ELISA); assay type: cell-based; conditions: murine monoclonal antibodies
T1 construct: wild type IGF-1R expressed on MCF-7 tumor cells; endogenous in cells; host or cells: MCF-7
Procedure: Cell lines: IGF1R expressing human breast carcinoma cell line MCF-7 (NCI) were maintained at 37° C. and 5% CO2 in MEM eagle (ATCC) containing 10% FBS, 1× non-essential amino acids, 2 mM L-glutamine, 1 mM sodium pyruvate and 1000 U/ml penicillin and streptomycin. Cells were sub-cultured twice weekly for maintenance and assay, and used with a maximum of 12 passages.
MCF-7 cells were plated in 2 ml growth media at 2×10^5 to 4.0×10^5 cells/well in Ploy-D-Lysine coated 12 well plates (BD Biosciences, #35-6470) and cultured at 37° C., 5% CO2. At 48 hours, media removed and cells serum starved overnight at 37° C., 5% CO2 Serum free media was removed and control or test antibodies at indicated concentration were added in 350 ul of fresh serum free media and incubated for 1 hour at room temperature, or alternately at 37° C. Fabs were tested at 200 nM, 20 nM and 2 nM concentration and the mAbs were tested at 67, 6.7 and 0.67 nM. The commercial anti-IGF-1R control antibody used was αIR3 (EMD biosciences, Oncogene Research products, #D27249). […] Ligand was incubated at […] for 37° C. antibody experiments. Cells were lysed in 1× cell lysis buffer (Cell Signal Technologies, #9803) with 1 mM PMSF for 1 hour at room temperature.
Cell lysates were added to ELISA plates pre-coated with IGF-1Rp antibody (Clone 1-2, Biosource International, #AHR0361) and incubated for 2 hours. Following which plates were washed and the plate bound phosphorylated receptor was detected with the biotin labeled anti-phosphotyrosine antibody 4G10 (Catalog #16-103, Upstate Cell Signaling Solutions (Lake Placid, N.Y. (now part of Millipore, Concord, Mass. (USA)) and streptavidin-HRP (BD Pharmingen, #554066). Assay is developed by addition of TMB substrate (Kierkegaard & Perry, #50-76-00) and color stopped by addition of […] (LabChem, Cat#LC25830-1). Optical density is measured at 450 nm using a Molecular Devices plate reader and percent inhibition over the ligand control is calculated for each antibody-ligand sample.
The effect of human anti-IGF-1R antibodies on IGF-1R signaling was evaluated using MCF-7 cells (human breast adenocarcinoma cells).

IGF-1R = biological target: T2, IGF-1R (Homo sapiens, UniProt P08069); assay: Ligand blocking assay (RIA): 125I-IGF-1 / 125I-IGF-2 binding to immobilized IGF-1R; conditions: murine monoclonal antibodies
T2 construct: human IGF-1R(1-903)-Fc (denoted hIGF-1R-Fc, generated by Biogen Idec)
Excerpt: Ligand blocking assay (RIA). […] Insulin (Arg-Insulin, Cat #01-207) was purchased from Upstate Cell Signaling Solutions (Lake Placid, N.Y. (now part of Millipore, Concord, Mass. (USA)). ^125I-rhIGF-1 (Cat # IM172), ^125I-rhIGF-2 (Cat# IM238) and ^125I-rhInsulin (Cat# IM166) were purchased from Amersham Biosciences (Piscataway, N.J.). AffiPure goat anti-human IgG, Fcγ fragment specific antibodies (Cat #109-005-098, Jackson ImmunoResearch, West Grove, Pa.) was used for IGF-1R-Fc capture. As detection antibody, goat anti-mouse IgG HRP (Cat #1030-05, Southern Biotech Birmingham, Ala.) was used.
Human insulin receptor α-subunit specific antibodies, Clone 83-14, (Cat #AHR0221, Biosource International, Inc., Camarillo, Calif.) and the 47-9 (Cat #E55502M, Biodesign International, Saco, M E) were used as positive controls blocking of insulin-insulin receptor binding experiments. Recombinant IGF-1R-Fc fusion protein was produced at Biogen Idec (Cambridge, Mass.).
As isotype matched mouse negative control antibodies, 2B8 (murine α-CD20.1gG,) and 2B8 mkm.G2a (murine α-CD20 MAb, IgG2a, Biogen Idec, Lot #NB3304-87, San Diego, Calif.) were used. The negative control for Fabs was R001-1B provided by Christilyn Graff (Biogen Idec, Cambridge, Mass.). PBS used in buffers was from BioWhittaker (Cat. # 17-513F, Walkersville, Md.).
Recombinant human IGF-1R (Histidine tagged version) or IGF-1R-Fc was coated onto IMMULON2 HB (high binding) Removawell strips (Dynex Technologies, Inc., cat. #6302) diluted with carbonate coating buffer pH 9.5 to a concentration of 250 ng/well. After overnight incubation at 4° C., the wells were washed three times with washing buffer (0.05% Tween 20/PBS) then blocked with blocking buffer (3% BSA/PBS) for one hour at room temperature. The blocking buffer was removed and the wells washed three more times. Antibody, Fab, or ligand preparations were diluted to desired concentration with dilution buffer (1% BSA/0.05% Tween 20/PBS) and plated at 50 μl per well in duplicate. After 45 minutes at room temperature, 100,000 cpm of either [125I] rhIGF-1 or [125I] rhIGF-2 in 50 μl dilution buffer was added per well. This was incubated at room temperature for one more hour. The wells were washed again three more times and left liquid free after the last wash. The air-dried wells were counted with the Isodata Gamma Counter.
Alternatively, Fabs were evaluated by a modified capture assay, where the IGF-1R-Fc was captured using anti-human IgG immobilized to a plate. Immobilization was carried out by overnight incubation of goat anti-human IgG, Fcγ fragment specific antibody (200 ng/well) in carbonate coating buffer. The wells were washed, blocked and 250 ng of IGF-1R-Fc was added per well.
The ligand blocking ability of the anti-IGF-1R antibody was determined by a solid phase RIA capture method as described in Example 3. […] After 1 hour of incubation at room temperature, the wells were washed and counted for bound radioactivity by a Gamma Counter. An isotype matched negative antibody control, IDEC-151 (human G4), was used. Percent (%) inhibition was calculated as =[1−(Ave.CPM with Ab)/(Ave.CPM with buffer)]×100%.

NCI-H23 = assay: IGF driven tumor cell growth, CELL TITER-GLO, H-23; assay type: cell-based, human; conditions: lung cancer cells
Procedure: as §1, §2, §3
A commercially available anti-IGF-1R antibody (IR3) was used as a positive control. The mouse IgG (anti-IDectin, IgG1) and human gamma 4 version of IDEC-152 antibody of irrelevant specificity were used as isotype matched controls for the experiments. […]

Calu-6 = assay: IGF driven tumor cell growth, CELL TITER-GLO, Calu-6; assay type: cell-based, human; conditions: lung cancer cells
Procedure: as §1, §2, §3

MCF-7 = assay: Ki67 inhibition in MCF-7 cells; assay type: cell-based, human; conditions: breast cancer cell
[1] = biological target: T3, recombinant human IGF-1R-10His (Homo sapiens, UniProt P08069); assay: SPR, antibodies and Fabs on IGF-1R-His captured via PENTA-His antibody; assay type: binding; conditions: Fab fragment; 25° C.
T3 construct: denoted hIGF-1R(1-902)-His10, was purchased from R&D systems (Cat. No. 305-GR-050); purchased R&D Systems 305-GR-050
Procedure: Method: The binding activity of M13-C06, M14-C03, and […] to soluble IGF-1R was measured using surface plasmon resonance. Biotinylated PENTA-His Antibody (Qiagen, Inc.) was immobilized onto a Streptavidin coated Sensor Chip. Soluble/Dimeric IGF-1R-His ectodomain (R&D systems, Inc.) was captured on the surface via the PENTA-His antibody. Secondary injections of M13-C06, M14-C03, or M14-G11 Fabs (0.5 nM-100nM) were performed. The surfaces were regenerated with three short injections of acetate, pH 4.0.
M13-C06, M14-C03, and M14-G11 Fab antibodies were prepared by digestion with immobilized papain (Pierce Cat. No. 20341 (Pierce Biotechnology, Inc., Rockford, Ill.)). The papain resin was washed with 20 mM sodium phosphate pH 7.0; 10 mM EDTA; 20 mM Cysteine. Antibodies were mixed with the papain resin in 500 mM EDTA, 100 mM Cysteine pH 7.0 and digested for three hours in a 37° C. water bath followed by mixing on an inverting shaker overnight at room temperature. Completion of each digestion was determined by analytical size exclusion chromatography (SEC). The resin was removed from the digested protein with a sintered glass funnel filter and washed with 20 mM acetate pH 5.0. The flowthrough was collected and diluted 10-fold with 20 mM acetate pH 5.0. Fab fragments were purified by S-SEPHAROSE™ cation exchange chromatography using a linear salt gradient. […]

Molecule	Proliferation of Tumor Cells Colo-205 (Colo-205)	Proliferation of Tumor Cells Panc-1 (Panc-1)	Inhibition of IGF-1R.pTyr IGF-1 (IGF-1R phosphorylation)	Inhibition of IGF-1R.pTyr IGF-2 (IGF-1R phosphorylation)	IGF Blocking IGF-1 (IGF-1R)	Proliferation of Tumor Cells H-23 (NCI-H23)	Proliferation of Tumor Cells Calu-6 (Calu-6)	Proliferation of Tumor Cells MCF-7* (Ki67 Inhibit.) (MCF-7)	ka [1] [M⁻¹ s⁻¹]	kd [1] [s⁻¹]
B1	++ (>30%@1 μg/ml)	+ (>30%@10 μg/ml)	+++ (>30%@0.1 μg/ml)	+++ (>30%@0.1 μg/ml)	+++ (>40%@0.1 μg/ml)	+++ (>30%@0.1 μg/ml)	++ (>30%@1 μg/ml)	+++ (>50%@0.1 μg/ml)	–	–
B2	–	–	–	–	–	–	–	–	190000	0.00094
